Tests used:
[1] = target: T1, human ATP Binding Cassette Subfamily C Member 1 (ABCC1) (UniProt P33527 1-1531); assay: FACS titration on C6 cells
cynomolgus monkey ABCC1 [2] = target: T2, cynomolgus monkey ABCC1 (UniProt Q864R9 1-1531); assay: FACS titration on C6 cells
[3] = target: T1, human ATP Binding Cassette Subfamily C …; assay: FACS titration on C6-hC1 cells
[4] = target: T1, human ATP Binding Cassette Subfamily C …; assay: FACS titration on H69AR cells
cynomolgus monkey ABCC1 [5] = target: T2, cynomolgus monkey ABCC1; assay: FACS titration on C6-cC1 cells
cynomolgus monkey ABCC1 [6] = target: T2, cynomolgus monkey ABCC1; assay: FACS titration on C6 cells; C6 cells
[7] = target: T1, human ATP Binding Cassette Subfamily C …; assay: FACS titration on C6 cells; remark: listed apart in the source
[8] = target: T1, human ATP Binding Cassette Subfamily C …; assay: FACS cell binding
cynomolgus monkey ABCC1 [9] = target: T2, cynomolgus monkey ABCC1; assay: FACS cell binding
cynomolgus monkey ABCC1 [10] = target: T2, cynomolgus monkey ABCC1; assay: FACS titration on C6-cC1 cells; C6 cells

T2 sequence (Q864R9 whole entry): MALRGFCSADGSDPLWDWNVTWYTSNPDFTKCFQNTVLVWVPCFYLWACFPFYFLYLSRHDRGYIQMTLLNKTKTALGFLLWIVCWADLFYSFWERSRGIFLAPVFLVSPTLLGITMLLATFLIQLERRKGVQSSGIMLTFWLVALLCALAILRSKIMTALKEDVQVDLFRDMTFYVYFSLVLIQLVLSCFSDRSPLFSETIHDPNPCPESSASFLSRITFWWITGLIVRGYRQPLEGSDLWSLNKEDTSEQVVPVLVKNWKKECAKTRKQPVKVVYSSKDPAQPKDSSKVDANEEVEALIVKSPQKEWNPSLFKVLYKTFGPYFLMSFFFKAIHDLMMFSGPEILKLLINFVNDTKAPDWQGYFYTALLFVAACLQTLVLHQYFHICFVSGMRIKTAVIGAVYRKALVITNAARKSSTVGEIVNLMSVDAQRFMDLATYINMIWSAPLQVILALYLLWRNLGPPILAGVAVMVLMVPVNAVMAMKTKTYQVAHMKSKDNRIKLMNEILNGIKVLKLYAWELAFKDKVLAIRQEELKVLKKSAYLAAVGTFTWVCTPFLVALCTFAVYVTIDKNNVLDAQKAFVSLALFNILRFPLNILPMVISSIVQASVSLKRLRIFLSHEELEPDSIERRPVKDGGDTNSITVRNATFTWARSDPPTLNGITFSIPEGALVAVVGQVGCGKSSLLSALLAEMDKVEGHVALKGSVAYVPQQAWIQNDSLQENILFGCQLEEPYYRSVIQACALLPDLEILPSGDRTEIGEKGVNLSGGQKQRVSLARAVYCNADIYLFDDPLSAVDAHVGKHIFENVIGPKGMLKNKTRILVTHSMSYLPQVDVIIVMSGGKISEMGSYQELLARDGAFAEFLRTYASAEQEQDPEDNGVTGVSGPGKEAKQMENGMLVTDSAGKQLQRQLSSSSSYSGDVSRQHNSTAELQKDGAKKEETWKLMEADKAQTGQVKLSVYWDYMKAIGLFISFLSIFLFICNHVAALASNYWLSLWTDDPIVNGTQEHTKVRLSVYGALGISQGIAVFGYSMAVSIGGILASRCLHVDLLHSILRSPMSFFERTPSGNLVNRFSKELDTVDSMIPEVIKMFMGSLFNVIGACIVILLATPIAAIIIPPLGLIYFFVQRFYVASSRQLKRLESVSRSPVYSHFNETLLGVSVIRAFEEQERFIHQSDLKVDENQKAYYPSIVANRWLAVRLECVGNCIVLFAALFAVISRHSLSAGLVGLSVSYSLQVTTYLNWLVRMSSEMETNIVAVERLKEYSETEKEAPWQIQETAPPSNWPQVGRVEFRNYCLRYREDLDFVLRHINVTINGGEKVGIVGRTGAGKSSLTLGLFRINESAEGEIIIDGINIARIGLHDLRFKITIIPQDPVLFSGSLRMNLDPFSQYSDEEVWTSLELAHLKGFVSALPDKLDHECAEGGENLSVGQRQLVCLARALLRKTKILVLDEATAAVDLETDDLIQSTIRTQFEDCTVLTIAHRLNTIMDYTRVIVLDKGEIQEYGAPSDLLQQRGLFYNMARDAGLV

B1: C1.835 (antibody, V domains shown)
VH: EVQLLESGPGLVQPSQTLSLTCTVSGFSLTNNGVSWVRQPPGKGLEWVAAMSSGGNIYYNSAFKSRLSISRHTSKSQVLLKMNSLQTEDTAMYFCARHRGYYGYNWGYFDYWGQGVMVTVSS
VL: NIQLTQSPSLLSASVGDRVTLSCKGSQNIYNYLAWYQQKLGEAPKLLIYKTNSLQTDIPSRFSGSGSGTDYTLTISSLHSEDLATYYCCQYNNGYTFGAGTKLELK
Kd [1]: 144 nM | Kd (cynomolgus monkey ABCC1 [2]): 575 nM

B2: C1.827 (antibody, V domains shown)
VH: EVQLVESGPGLVQPSQTLSLTCTVSGFSLTNNGVSWVRQPPGKGLEWIAAISNGGNIYHNSALKSRLSISRNTAKSQVLLKMNSLQTEDTAMYFCARHRGYYGYNWGYFDYWGQGASVTVSS
VL: NIQVTQSPSLLSASVGDRVTLSCKGSQNIYNYLAWYQQKLGEAPKLLIYKTNSLQTGIPSRFSGSGSGTDYTLTISSLHSEDLATYYCCQYNNGYTFGAGTKLELK
Kd [1]: 134 nM | Kd (cynomolgus monkey ABCC1 [2]): 67.3 nM

B3: C1.787a (antibody, V domains shown)
VH: EVQLTESGPGLVQPSQTLSLTCTVSGFSLTSNGVSWVRQPPGKGLEWIAAISSGGSTYYNSAFKSRLSISRHTSKSQVLLNMNSLQTEDTAMYFCARHRGYYWSNWGYFDYWGQGVMVTVSS
VL: NIQLTQSPSLLSASVGDRVTLSCKGSQNINNYLAWYQQKLGEAPKLLIYKTNSLQTGIPSRFSGSGSGTDYTLTLSSLHSEDLATYYCCQYNDGYTFGAGTKLELK
Kd [3]: 7.8 nM | Kd [4]: 4.3 nM | Kd (cynomolgus monkey ABCC1 [5]): 27.6 nM

B4: C1.863 (antibody, V domains shown)
VH: EVQRKESGPGLVQPSQTLSLTCTVSGFSLTNNGVSWVRQPPGKGLEWIAAISSGGSIYYNSAFKSRLSISRITSKSQVLLKMNSLQTEDTAMYFCARHRGYYGYNWGYFDYWGQGVMVTVSS
VL: NIQMTQSPSLLSASVGDRVTLSCKGSQNIYNYLAWYQQKLGEAPKLLIYKTSSLQAGIPSRFSGSGSDTDYTLTISSLHSEDLATYYCCQYNNGYTFGAGTKLEIK
Kd [3]: 11.7 nM | Kd (cynomolgus monkey ABCC1 [5]): 27.3 nM

B5: C1.778b (antibody, V domains shown)
VH: EVQRKESGPGLVQPSQTLSLTCTVSGFSLTNNGVSWVRQPPGKGLEWIAAISSGGSIYYNSAFKSRLSISRITSKSQVLLKMNSLQTEDTAMYFCARHRGYYGYNWGYFDYWGQGVMVTVSS
VL: NIQLTQSPSLLSASVGDRVTLSCKGSQNIDNYLAWYQQKLGEPPKLLIYKTNSLQTGIPSRFSGSGSGTDYTLTISSLHSEDLATYYCYQYNNGYTFGAGTKLELKR
Kd (cynomolgus monkey ABCC1 [6]): 28.2 nM | Kd [4]: 8.7 nM | Kd [7]: 667 nM

B6: C1.861.hu41 (antibody, V domains shown)
VH: EVQLQESGPGLVKPSETLSLTCTVSGFSLTSSGVTWVRQPPGKGLEWIAAISSGGNIYYNSAVKSRLTISRDTSKNQVSLKLSSVTAADTAVYYCTRARGTTTAYVMDAWGQGTTVTVSS
VL: DVQLTQSPSSLSASVGDRVTITCKSSQSLLYSGNQKNYLAWYQQKPGKSPKLLIYWASTRQSGVPSRFSGSGSGTDFTLTISSLQPEDVATYYCQQYYDVLMNMFGGGTKLEIK
Kd [8]: 156 nM | Kd (cynomolgus monkey ABCC1 [9]): 64 nM

B7: C1.861.hu61 (antibody, V domains shown)
VH: EVQLVESGGGLIQPGGSLRLSCAVSGFSLTSSGVTWVRQPPGKGLEWIAAISSGGNIYYNSAVKSRLTISRDTSKNTVYLQMNSLRAEDTAVYFCTRARGTTTAYVMDAWGQGTTVTVSS
VL: DVQLTQSPSSLSASVGDRVTITCKSSQSLLYSGNQKNYLAWYQQKPGKSPKLLIYWASTRQSGVPSRFSGSGSGTDFTLTISSLQPEDVATYYCQQYYDVLMNMFGGGTKLEIK
Kd [8]: 218 nM | Kd (cynomolgus monkey ABCC1 [9]): 135 nM

B8: C1.861.hu21 (antibody, V domains shown)
VH: EVQLVESGGGLIQPGGSLRLSCAVSGFSLTSNGVTWVRQPPGKGLEWIAAISSGGNIYYNSAVKSRLTISRDTSKNTVYLQMNSLRAEDTAVYFCTRARGTTTAYVMDAWGQGTTVTVSS
VL: DVQLTQSPSSLSASVGDRVTITCKSSQSLLYSGNQKNYLAWYQQKPGKSPKLLIYWASTRQSGVPSRFSGSGSGTDFTLTISSLQPEDVATYYCQQYYDVLMNMFGGGTKLEIK
Kd (cynomolgus monkey ABCC1 [10]): 11 nM | Kd [8]: 38 nM | Kd (cynomolgus monkey ABCC1 [9]): 37 nM

B9: C1.861 (antibody, V domains shown)
VH: EVQLKESGPGLVQPSQTLSLTCTVSGFSLTSNGVTWVRQPPGKGLEWIAAISSGGNIYYNSAVKSRLSISRDTSKSQVFLKMNSLQTEDTAIYFCTRARGTTTAYVMDAWGQGASVTVSS
VL: DVVLTQSPSSLAVSAGETVTINCKSSQSLLYSGNQKNYLAWYQQKPGQSPKLLIYWASTRQSGVPDRFIGSGSGTDFTLTISSVQAEDLAIYYCQQYYDVLMNMFGAGTKLEIK
Kd [3]: 14.7 nM | Kd (cynomolgus monkey ABCC1 [6]): 60.1 nM | Kd (cynomolgus monkey ABCC1 [5]): 28 nM

B10: C1.831.hu41 (antibody, V domains shown)
VH: EVQLQESGPGLVKPSETLSLTCTVSGFSLTSQGVSWVRQPPGKGLEWIAAISSGGNIYYNSVLKSRLTISRDTSKNQVSLKLSSVTAADTAVYYCTRERGWNYPFITSGYYFDYWGQGTLVTVSS
VL: DIQLTQSPSSLSASVGDRVTITCKAGQNINNYLAWYQQKPGKAPKLLIYNANSLQTGIPSRFSGSGSGTDYTLTISSLQPEDFATYYCQQYNSWYTFGQGTKLEIK
Kd [8]: 21 nM | Kd (cynomolgus monkey ABCC1 [9]): 20 nM

B11: C1.831.hu11 (antibody, V domains shown)
VH: EVQLQESGPGLVKPSETLSLTCTVSGFSLTSNGVSWVRQPPGKGLEWIAAISSGGNIYYNSVLKSRLTISRDTSKNQVSLKLSSVTAADTAVYYCTRERGWNYPFITNGYYFDYWGQGTLVTVSS
VL: DIQLTQSPSSLSASVGDRVTITCKAGQNINNYLAWYQQKPGKAPKLLIYNANSLQTGIPSRFSGSGSGTDYTLTISSLQPEDFATYYCQQYNSWYTFGQGTKLEIK
Kd (cynomolgus monkey ABCC1 [10]): 11 nM | Kd [8]: 21 nM | Kd (cynomolgus monkey ABCC1 [9]): 27 nM

B12: C1.844.hu21 (antibody, V domains shown)
VH: EVQLVESGGGLIQPGGSLRLSCAVSGFSLTSNGVIWVRQPPGKGLEWIAAISSGGNIYYNSGLKSRLTISRDTSKNTVYLQMNSLRAEDTAVYYCTRARGTTTAYVMDAWGQGTLVTVSS
VL: DIVMTQSPDSLAVSLGERATINCKSSQSLLYSVNQKNYLAWYQQKPGQSPKLLIYWASTRQSGVPDRFSGSGSGTDFTLTISSLQAEDVAVYYCQQYYDTLMKMFGAGTKLELK
Kd (cynomolgus monkey ABCC1 [10]): 11 nM | Kd [8]: 103 nM | Kd (cynomolgus monkey ABCC1 [9]): 83 nM

B13: C1.505 (antibody, V domains shown)
VH: EVQLTESGPGLVQPSQTLSLTCTVSGFSLTSNGVSWVRLPPGKGLEWIAAISSGGNIYYNSALKSRLSISRDTSKSQVFLKMNSLQTEDTAIYFCTRERGWNYPGITNGYYFDYWGQGASVTVSS
VL: DIVLTQSPSLLSASVGDRVILSCKAGQKINNYLAWYQQKLGEAPKLLIYNANSLQTGIPSRFSGSGSGTDYTLTISSLQPEDVATYFCQQYNSWYTFGAGTKLEIK
Kd [1]: 35.2 nM | Kd [4]: 7.1 nM | Kd [7]: 81.2 nM

B14: C1.831 (antibody, V domains shown)
VH: EVQLTESGPGLVQPSQTLSLTCTVSGFSLTSNGVSWVRQPPGKGLEWIAAISSGGNIYYNSVLKSRLSISRDTSKSQVFLKMSSVQTEDTAIYFCTRERGWNYPFITNGYYFDYWGQGVMVTVSS
VL: EIMLTQSPSLLSASVGDRVTLSCKAGQNINNYLAWYQQKLGEAPKLLIYNANSLQTGIPSRFSGSGSGTDYTLTISSLQPEDVATYFCQQYNSWYTFGAGTKLEIK
Kd [1]: 11.4 nM | Kd (cynomolgus monkey ABCC1 [2]): 8.7 nM
